Source: US20140024606A1

Assays:
[1] = target: IL-1 receptor (IL-1R) on cells (UniProt P14778); assay: cell-based or functional assay
[2] = target: CD36 on RAW 264.7 murine macrophage cells (murine) (UniProt Q08857); assay: cell-based or functional assay
[3] = target: recombinant soluble His-tagged CD36; assay: SPR; His-tagged soluble CD36 immobilized, peptide 100 nM to 30 µM, Langmuir isotherm fit
Sequence of recombinant soluble His-tagged CD36 (P16671 30-439): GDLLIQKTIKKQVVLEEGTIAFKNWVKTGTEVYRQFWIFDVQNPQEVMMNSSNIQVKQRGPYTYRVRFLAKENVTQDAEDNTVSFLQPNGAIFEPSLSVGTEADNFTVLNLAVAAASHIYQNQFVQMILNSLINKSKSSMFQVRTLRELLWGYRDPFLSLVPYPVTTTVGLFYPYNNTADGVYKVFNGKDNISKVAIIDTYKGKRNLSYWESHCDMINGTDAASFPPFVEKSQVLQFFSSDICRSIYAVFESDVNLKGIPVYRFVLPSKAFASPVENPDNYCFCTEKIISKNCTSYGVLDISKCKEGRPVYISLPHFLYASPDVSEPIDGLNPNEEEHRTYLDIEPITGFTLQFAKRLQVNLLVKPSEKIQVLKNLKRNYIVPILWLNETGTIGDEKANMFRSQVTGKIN

Sequence of CD36 on RAW 264.7 murine macrophage cells (murine) (Q08857 whole entry): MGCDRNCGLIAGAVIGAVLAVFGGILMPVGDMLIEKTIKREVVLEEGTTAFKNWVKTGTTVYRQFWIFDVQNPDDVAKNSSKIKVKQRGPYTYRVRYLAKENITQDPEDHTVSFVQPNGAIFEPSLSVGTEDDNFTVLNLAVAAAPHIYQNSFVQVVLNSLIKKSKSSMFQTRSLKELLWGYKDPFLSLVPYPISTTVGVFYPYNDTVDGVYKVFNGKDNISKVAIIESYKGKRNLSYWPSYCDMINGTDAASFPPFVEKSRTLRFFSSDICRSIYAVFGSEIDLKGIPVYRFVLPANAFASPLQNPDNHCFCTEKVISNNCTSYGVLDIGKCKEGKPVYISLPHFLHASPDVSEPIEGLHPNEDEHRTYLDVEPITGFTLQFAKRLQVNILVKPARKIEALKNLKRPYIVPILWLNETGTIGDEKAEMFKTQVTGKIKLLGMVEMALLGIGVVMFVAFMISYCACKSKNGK
Sequence of IL-1 receptor (IL-1R) on cells (P14778 18-569 limits assumed): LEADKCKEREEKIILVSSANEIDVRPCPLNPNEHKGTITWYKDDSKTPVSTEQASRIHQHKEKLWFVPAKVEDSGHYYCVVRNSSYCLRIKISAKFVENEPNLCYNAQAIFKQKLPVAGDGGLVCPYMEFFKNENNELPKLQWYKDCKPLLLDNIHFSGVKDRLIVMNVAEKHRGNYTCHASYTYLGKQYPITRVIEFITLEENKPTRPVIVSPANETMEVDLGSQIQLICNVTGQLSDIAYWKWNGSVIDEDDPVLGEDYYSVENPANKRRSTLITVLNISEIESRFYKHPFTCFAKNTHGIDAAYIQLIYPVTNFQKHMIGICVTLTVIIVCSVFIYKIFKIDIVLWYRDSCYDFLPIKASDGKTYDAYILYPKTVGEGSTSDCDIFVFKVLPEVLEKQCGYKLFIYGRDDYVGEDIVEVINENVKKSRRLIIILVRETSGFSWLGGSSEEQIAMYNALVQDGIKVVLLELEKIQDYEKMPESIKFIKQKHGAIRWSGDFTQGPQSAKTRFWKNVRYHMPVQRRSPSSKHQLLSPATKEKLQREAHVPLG

Substance	decrease in NF-KB activation in HEK Blue cells (SEAP reporter, OD620) [1]	IL-1β-induced human thymocyte (TF-1) proliferation [1]	JNK-kinase cellular assay EC50 [2]	Kd [3]	ΔλSPR (nm) [3]
Kineret (from UniProt P18510 26-177) (ligand)	100%				
[(R)-Agl^3]-101.10 (peptide)		41%			
[N-Amino-4-benzylimidazolin-2-one^4]GHRP-6 (His-D-Trp-Ala-(N-amino-4-benzyl-imidazolin-2-one)-D-Phe-Lys-NH2), 31b (peptide)			> 10 µM	11 µM	1.6 nm
[N-Amino-4-methylimidazolin-2-one^4]GHRP-6 (His-D-Trp-Ala-(N-amino-4-methyl-imidazolin-2-one)-D-Phe-Lys-NH2), RS-31a (peptide)			0.0554 µM	4.9 µM	1.1 nm
[Nad^3]-101.10 (D-Arg-D-Tyr-Nad-D-Val-D-Glu-D-Leu-D-Ala-NH2) (peptide)		53%			
[Nai^3]-101.10 (D-Arg-D-Tyr-Nai-D-Val-D-Glu-D-Leu-D-Ala-NH2) (peptide)	65%	77%			
[Nap^3]-101.10 (D-Arg-D-Tyr-Nap-D-Val-D-Glu-D-Leu-D-Ala-NH2) (peptide)		41%			
[azaTyr^4]GHRP-6 (His-D-Trp-Ala-AzaTyr-D-Phe-Lys-NH2) (peptide)			0.214 µM	5 µM	1.8 nm
